This note sets out measurements from the supplement of paper PMC10567573.

± gives the standard deviation.

A short description of this data set: protein stability index of a GFP-peptide fusion (GPS, HEK-293T) (PSI 1-6); higher = more stable. As to conditions: c terminus: a fixed tail appended.
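Also: 24-mer peptide tiles fused after GFP, lentivirally expressed, FACS-sorted into six equal bins by GFP/DsRed ratio, decoded by Illumina sequencing, PSI is the read-weighted mean bin number.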

MSTGPIAESWCYTQVKVVKFSYMW [SPOPL]: the protein stability index runs as follows: (treatment: DMSO) 2.41 ± 0.08; (treatment: MLN4924 1 uM, 8 h) 3.35 ± 1.5.

Turning to MSTIGSFEGFQAVSLKQEGDDQPS [TPRG1], the protein stability index runs as follows: (treatment: DMSO) 5.22 ± 0.082; (treatment: MLN4924 1 uM, 8 h) 5.22 ± 0.078.

In the case of MTRNDVLTGLQLKLGPALKIYEYH [SAMD13], the protein stability index stood at 2.24 ± 0.42 (treatment: DMSO) and 2.22 ± 0.3 (treatment: MLN4924 1 uM, 8 h).

In the case of MTTALQGQRLAVCVPAHPPPCAWA [CTBP1-DT], the protein stability index by setting is: (treatment: DMSO) 2.43 ± 0.2; (treatment: MLN4924 1 uM, 8 h) 2.56 ± 0.14.

Take MVEADRPGKLFIGGLNTETNEKAL [RBMX]: the protein stability index (treatment: DMSO) came to 4.75 ± 0.096 and the protein stability index (treatment: MLN4924 1 uM, 8 h) was 4.39 ± 0.48.

On to MVGLILGPFGVNHGVELHSDVIEY [PCMTD2], for which the protein stability index was found to be 3 ± 1.1 (treatment: DMSO) and 2.82 ± 0.64 (treatment: MLN4924 1 uM, 8 h).

As to MVLLIMKLDQLDQDIENALSTSSS [DLC1], the protein stability index came to 2.69 ± 0.58 (treatment: DMSO) and 2.49 ± 0.45 (treatment: MLN4924 1 uM, 8 h).

Turning to MVSNPVHGLPFLPGTSFKDSTKTA [EFHC1], the protein stability index is, setting by setting: (treatment: DMSO) 3.87 ± 0.24; (treatment: MLN4924 1 uM, 8 h) 3.97 ± 0.25.

On to MWDSKKIGLRQHHCRKCGKAVCGK [WDFY2], for which the protein stability index was 3.31 ± 0.15 (treatment: DMSO) and 3.58 ± 0.72 (treatment: MLN4924 1 uM, 8 h).

For MYTPAYGDFDFDEVKFPNASDMFR [MYORG], the protein stability index stood at 3.1 ± 0.3 (treatment: DMSO) and 3.16 ± 0.26 (treatment: MLN4924 1 uM, 8 h).

For NAANRTGYVPSNYVERKNSLKKGS [NCK2], the protein stability index reads like this: (treatment: DMSO) 4.33 ± 0.3; (treatment: MLN4924 1 uM, 8 h) 4.45 ± 0.18.

With NADGSYLCQCHEGFALNPDKKTCT [MATN2], the protein stability index runs as follows: (treatment: DMSO) 4.06 ± 0.14; (treatment: MLN4924 1 uM, 8 h) 4.2 ± 0.29.

As for NAKKLSMYGVDLHHAKDSEGVEIM [EPB41L3], the protein stability index by setting is: (treatment: DMSO) 3.66 ± 0.8; (treatment: MLN4924 1 uM, 8 h) 3.61 ± 0.72.

Consider NDAYGPPSNFLEIDVSNPQTVGVG [SNX3], for which the protein stability index reads like this: (treatment: DMSO) 4.68 ± 0.35; (treatment: MLN4924 1 uM, 8 h) 4.59 ± 0.08.

Take NEEETPSCMASLWTAPLVMRTTNL [CDC25A]: the protein stability index runs as follows: (treatment: DMSO) 3.22 ± 0.18; (treatment: MLN4924 1 uM, 8 h) 3.3 ± 0.11.

Regarding NEVLSSDILPRWAIIGWLLTTCTS [INTS3], the protein stability index stood at 2.99 ± 0.82 (treatment: DMSO) and 2.91 ± 0.49 (treatment: MLN4924 1 uM, 8 h).

With NFGEFKCSDSDKKCHLWTAMDLGF [CLCN6], the protein stability index was determined as 2.19 ± 0.32 (treatment: DMSO) and 2.34 ± 0.46 (treatment: MLN4924 1 uM, 8 h).

NGDGAFLHDNHEQMPTEIEFPESR [ZNF649]: the protein stability index reads like this: (treatment: DMSO) 5.31 ± 0.36; (treatment: MLN4924 1 uM, 8 h) 5.19 ± 0.45.

NGNRRRRKLRKTVNGDGSRENGNN [PHTF1] gave a protein stability index (treatment: DMSO) of 4.93 ± 0.43 and a protein stability index (treatment: MLN4924 1 uM, 8 h) of 5.12 ± 0.19.

Regarding NGVLGLSRLLFFLLGFLRIRVRGQ [LPCAT4], the protein stability index by setting is: (treatment: DMSO) 2.2 ± 0.34; (treatment: MLN4924 1 uM, 8 h) 2.44 ± 0.25.

Regarding NHDIRTANDGDYWRLLNPGEYVVT [CPXM2], the protein stability index came to 2.96 ± 0.21 (treatment: DMSO) and 3.25 ± 0.31 (treatment: MLN4924 1 uM, 8 h).

Take NHEALRQAKQEMNESRRQIQSLTC [PRPH]: the protein stability index (treatment: DMSO) was found to be 4.47 ± 0.18 and the protein stability index (treatment: MLN4924 1 uM, 8 h) amounted to 4.38 ± 0.15.

Regarding NHEIMPGGSVNITCVAVGSPMPYV [PTPRD], the protein stability index was 2.15 ± 0.8 (treatment: DMSO) and 2.28 ± 0.16 (treatment: MLN4924 1 uM, 8 h).

With NHEQEVNTLRCQLGDRLNVEVDAA [KRT33B], the protein stability index is 4.94 ± 0.11 (treatment: DMSO) and 5.16 ± 0.22 (treatment: MLN4924 1 uM, 8 h).

In the case of NHLPPQTKRSSRNPVFQDSWDTES [FAM104A], the protein stability index runs as follows: (treatment: DMSO) 4.48 ± 0.29; (treatment: MLN4924 1 uM, 8 h) 4.59 ± 0.46.

For NIMTQNVERILARGENLEHLRNKT [VAMP8], the protein stability index by setting is: (treatment: DMSO) 3.46 ± 0.29; (treatment: MLN4924 1 uM, 8 h) 3.93 ± 0.068.

As for NISELKRTFLETSTDTAVTNEWEK [EPB41L3], the protein stability index by setting is: (treatment: DMSO) 4.82 ± 0.25; (treatment: MLN4924 1 uM, 8 h) 4.686 ± 0.034.

For NLENPMRRIHSLPQKLLGCSPALK [CDC25A], the protein stability index reads like this: (treatment: DMSO) 2.64 ± 0.23; (treatment: MLN4924 1 uM, 8 h) 3.11 ± 0.32.

For the sequence NLTSPASITFTTGLEAPRDLEAKE [TNXB], the protein stability index runs as follows: (treatment: DMSO) 5.21 ± 0.51; (treatment: MLN4924 1 uM, 8 h) 5.51 ± 0.36.

For the sequence NLVAGCLQLNARSFMMGQGGEAAH [NEUROD6], the protein stability index was 2.34 ± 0.22 (treatment: DMSO) and 2.02 ± 0.11 (treatment: MLN4924 1 uM, 8 h).

As to NNEIPDCYTFSVLITFDNKAHSGR [MCOLN1], the protein stability index reads like this: (treatment: DMSO) 2.34 ± 0.31; (treatment: MLN4924 1 uM, 8 h) 2.42 ± 0.53.

For the sequence NNKYSYTSNSDDNMLKNIELFDKL [KCTD10], the protein stability index runs as follows: (treatment: DMSO) 3.9 ± 0.068; (treatment: MLN4924 1 uM, 8 h) 3.9 ± 0.26.

In the case of NNQYSEGVQREAQRIALRLGNGND [KMT2E], the protein stability index came to 4.51 ± 0.24 (treatment: DMSO) and 4.63 ± 0.18 (treatment: MLN4924 1 uM, 8 h).

For the sequence NNSIKDLTDGHFENILADNSVNDQ [SERPINB5], the protein stability index is, setting by setting: (treatment: DMSO) 5.32 ± 0.12; (treatment: MLN4924 1 uM, 8 h) 5.26 ± 0.25.

With NQIMPKAGLLIIVLAIIAREGDCA [MAGEA3], the protein stability index by setting is: (treatment: DMSO) 3.02 ± 0.55; (treatment: MLN4924 1 uM, 8 h) 3.02 ± 0.76.

Regarding NQLQTKVAVLEQEIKDKDQLVLRT [SASS6], the protein stability index (treatment: DMSO) is 4.65 ± 0.21 and the protein stability index (treatment: MLN4924 1 uM, 8 h) was found to be 4.74 ± 0.27.
